According to PMC4746669, “Attenuation of ligand-induced activation of angiotensin II type 1 receptor signaling by the type 2 receptor via protein kinase C” (Scientific Reports, 2016):

Columns and labels:
[1] = biological target: T1, FLAG-AT2R-CFP (angiotensin II type 2 receptor) (human, UniProt P50052 1-363); test: co-IP; 293T cells, with or without AII (Suppl. Fig. S3); details not shown; conditions: partners not purified
T1 construct: Human angiotensin II type 2 receptor (AT2R); cDNA by RT-PCR from human umbilical vein endothelial cells; printed primers run from the codon after the initial methionine to the last codon; FLAG tag inserted after the initial methionine; subcloned EcoRI-NotI into pCXN2-CFPC; also called CFP-tagged AT2R; source: HeLa cells, transfected (FuGENE HD), in lysate or in living cells; not shown: FLAG, …
T1 sequence (looked up): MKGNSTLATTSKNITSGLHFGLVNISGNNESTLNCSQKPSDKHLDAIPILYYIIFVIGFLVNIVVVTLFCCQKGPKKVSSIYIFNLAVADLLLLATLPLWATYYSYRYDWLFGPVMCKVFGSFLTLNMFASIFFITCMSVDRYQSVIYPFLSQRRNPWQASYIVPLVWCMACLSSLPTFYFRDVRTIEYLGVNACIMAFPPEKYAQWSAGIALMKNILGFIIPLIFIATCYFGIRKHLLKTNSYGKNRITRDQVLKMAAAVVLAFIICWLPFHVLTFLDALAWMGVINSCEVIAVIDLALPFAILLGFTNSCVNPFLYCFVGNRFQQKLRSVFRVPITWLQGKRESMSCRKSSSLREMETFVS

[2] = biological target: T1, FLAG-AT2R-CFP (angiotensin II type 2 …); test: co-IP; HeLa cells co-transfected with HA-AT1R-YFP and Flag-AT2R-CFP, serum starved, with or without losartan or PD123319 pre-treatment and AII stimulation; NP-40 lysis buffer (10 mM Tris-HCl pH 7.4, 150 mM NaCl, 5 mM EDTA, 0.5% NP-40, 10% glycerol); anti-FLAG antibody with protein A-Sepharose; blot with anti-HA; conditions: partners not purified

- fold enhancement of the association by AII treatment (against no AII) [1]: 2.4 fold
- fold enhancement of the association by AII treatment (against no AII) [2]: 1.6 fold
B1: HA-AT1R-YFP (angiotensin II type 1 receptor) (receptor, human, UniProt P30556 1-359, looked up)
chain: MILNSSTEDGIKRIQDDCPKAGRHNYIFVMIPTLYSIIFVVGIFGNSLVVIVIYFYMKLKTVASVFLLNLALADLCFLLTLPLWAVYTAMEYRWPFGNYLCKIASASVSFNLYASVFLLTCLSIDRYLAIVHPMKSRLRRTMLVAKVTCIIIWLLAGLASLPAIIHRNVFFIENTNITVCAFHYESQNSTLPIGLGLTKNILGFLFPFLIILTSYTLIWKALKKAYEIQKNKPRNDDIFKIIMAIVLFFFFSWIPHQIFTFLDVLIQLGIIRDCRIADIVDTAMPITICIAYFNNCLNPLFYGFLGKKFKRYFLQLLKYIPPKAKSHSNLSTKMSTLSYRPSDNVSSSTKKPAPCFEVE
notes: Human angiotensin II type 1 receptor (AT1R); cDNA by RT-PCR from human umbilical vein endothelial cells; printed primers run from the codon after the initial methionine to the last codon; HA tag inserted after the initial methionine; subcloned EcoRI-NotI into pCXN2-YFPC; The reverse primer also encodes a stretch behind the NotI site that is lost on subcloning EcoRI-NotI into pCXN2-YFPC; also …
